Assay results: the supplement of paper PMC9112550, “Optimization of the antimicrobial peptide Bac7 by deep mutational scanning” (BMC Biology, 2022)

test system: Escherichia coli TOP10; assay: shrunken log2 fold change of peptide-encoding DNA abundance (4.5 h post-induction vs induction); higher = less antimicrobial activity (less host growth inhibition); conditions: time post-induction: 4.5 h; library: site-saturation at positions 5, 18, 19, 20
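Note: peptides expressed intracellularly from a pBAD plasmid library in pooled LB shake-flask culture, induced with 0.3% L-arabinose, DNA abundance read by NGS, three biological replicates, DESeq2 with apeglm shrinkage.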

Row | Sequence | shrunken log2 fold change
1 | RRIRGRPPRLPRPRPRPGCTPRP | 0.885
2 | RRIRGRPPRLPRPRPRPGDDPRP | 0.911
3 | RRIRGRPPRLPRPRPRPGEGPRP | 1.15
4 | RRIRGRPPRLPRPRPRPGEQPRP | 1.23
5 | RRIRGRPPRLPRPRPRPGETPRP | 0.515
6 | RRIRGRPPRLPRPRPRPGHAPRP | 0.801
7 | RRIRGRPPRLPRPRPRPGINPRP | 0.499
8 | RRIRGRPPRLPRPRPRPGKAPRP | 0.529
9 | RRIRGRPPRLPRPRPRPGKGPRP | 0.394
10 | RRIRGRPPRLPRPRPRPGNSPRP | 0.131
11 | RRIRGRPPRLPRPRPRPGQFPRP | -0.00612
12 | RRIRGRPPRLPRPRPRPGQHPRP | 0.0185
13 | RRIRGRPPRLPRPRPRPGRNPRP | 0.307
14 | RRIRGRPPRLPRPRPRPGSMPRP | 0.305
15 | RRIRGRPPRLPRPRPRPGTFPRP | 0.222
16 | RRIRGRPPRLPRPRPRPGTHPRP | 0.508
17 | RRIRGRPPRLPRPRPRPGWAPRP | 0.992
18 | RRIRGRPPRLPRPRPRPGWFPRP | 0.27
19 | RRIRGRPPRLPRPRPRPGWSPRP | 0.758
20 | RRIRGRPPRLPRPRPRPGYAPRP | 0.222
21 | RRIRGRPPRLPRPRPRPHCCPRP | 0.0841
22 | RRIRGRPPRLPRPRPRPHDYPRP | 0.0282
23 | RRIRGRPPRLPRPRPRPHENPRP | 0.446
24 | RRIRGRPPRLPRPRPRPHEPPRP | 1.15
25 | RRIRGRPPRLPRPRPRPHEQPRP | 0.0117

Row | Sequence | shrunken log2 fold change
26 | RRIRGRPPRLPRPRPRPHFPPRP | 0.0246
27 | RRIRGRPPRLPRPRPRPHGIPRP | 0.00234
28 | RRIRGRPPRLPRPRPRPHHDPRP | -0.102
29 | RRIRGRPPRLPRPRPRPHHSPRP | -0.196
30 | RRIRGRPPRLPRPRPRPHKYPRP | -0.216
31 | RRIRGRPPRLPRPRPRPHLHPRP | 0.227
32 | RRIRGRPPRLPRPRPRPHLLPRP | 0.306
33 | RRIRGRPPRLPRPRPRPHMCPRP | -0.01
34 | RRIRGRPPRLPRPRPRPHNCPRP | -0.0265
35 | RRIRGRPPRLPRPRPRPHNNPRP | -0.215
36 | RRIRGRPPRLPRPRPRPHPCPRP | 0.922
37 | RRIRGRPPRLPRPRPRPHPEPRP | 0.513
38 | RRIRGRPPRLPRPRPRPHPLPRP | 0.101
39 | RRIRGRPPRLPRPRPRPHQSPRP | 0.12
40 | RRIRGRPPRLPRPRPRPHQWPRP | 0.134
41 | RRIRGRPPRLPRPRPRPHRVPRP | 0.0916
42 | RRIRGRPPRLPRPRPRPHSTPRP | 0.517
43 | RRIRGRPPRLPRPRPRPHVMPRP | 0.0731
44 | RRIRGRPPRLPRPRPRPHVNPRP | 0.295
45 | RRIRGRPPRLPRPRPRPHWMPRP | 0.0496
46 | RRIRGRPPRLPRPRPRPHWNPRP | -0.017
47 | RRIRGRPPRLPRPRPRPHWSPRP | -0.132
48 | RRIRGRPPRLPRPRPRPHYCPRP | 0.167
49 | RRIRGRPPRLPRPRPRPHYHPRP | -0.421
50 | RRIRGRPPRLPRPRPRPICCPRP | 0.8

Row | Sequence | shrunken log2 fold change
51 | RRIRGRPPRLPRPRPRPIFQPRP | 0.407
52 | RRIRGRPPRLPRPRPRPIFVPRP | 0.42
53 | RRIRGRPPRLPRPRPRPIHEPRP | -0.135
54 | RRIRGRPPRLPRPRPRPIHKPRP | -0.16
55 | RRIRGRPPRLPRPRPRPIHPPRP | 0.0319
56 | RRIRGRPPRLPRPRPRPIHTPRP | 0.0205
57 | RRIRGRPPRLPRPRPRPIKIPRP | 0.302
58 | RRIRGRPPRLPRPRPRPIKVPRP | 0.356
59 | RRIRGRPPRLPRPRPRPILCPRP | 0.174
60 | RRIRGRPPRLPRPRPRPIMCPRP | 0.0901
61 | RRIRGRPPRLPRPRPRPIMIPRP | 0.0216
62 | RRIRGRPPRLPRPRPRPINMPRP | -0.0846
63 | RRIRGRPPRLPRPRPRPIPIPRP | 0.0541
64 | RRIRGRPPRLPRPRPRPIQQPRP | 0.0149
65 | RRIRGRPPRLPRPRPRPIRLPRP | -0.0112
66 | RRIRGRPPRLPRPRPRPISHPRP | -0.0449
67 | RRIRGRPPRLPRPRPRPISYPRP | -0.0956
68 | RRIRGRPPRLPRPRPRPITWPRP | -0.0883
69 | RRIRGRPPRLPRPRPRPIVRPRP | 0.211
70 | RRIRGRPPRLPRPRPRPIWAPRP | 0.267
71 | RRIRGRPPRLPRPRPRPIWLPRP | 0.159
72 | RRIRGRPPRLPRPRPRPKAEPRP | 1.35
73 | RRIRGRPPRLPRPRPRPKAFPRP | 0.157
74 | RRIRGRPPRLPRPRPRPKAMPRP | 0.147
75 | RRIRGRPPRLPRPRPRPKANPRP | 0.836

Row | Sequence | shrunken log2 fold change
76 | RRIRGRPPRLPRPRPRPKDTPRP | 0.61
77 | RRIRGRPPRLPRPRPRPKEYPRP | -0.102
78 | RRIRGRPPRLPRPRPRPKFSPRP | 0.392
79 | RRIRGRPPRLPRPRPRPKIGPRP | 0.752
80 | RRIRGRPPRLPRPRPRPKKMPRP | 0.572
81 | RRIRGRPPRLPRPRPRPKKTPRP | 0.181
82 | RRIRGRPPRLPRPRPRPKLMPRP | 1
83 | RRIRGRPPRLPRPRPRPKNCPRP | -0.111
84 | RRIRGRPPRLPRPRPRPKNYPRP | 0.175
85 | RRIRGRPPRLPRPRPRPKPGPRP | 1.07
86 | RRIRGRPPRLPRPRPRPKQWPRP | 0.28
87 | RRIRGRPPRLPRPRPRPKSAPRP | 0.781
88 | RRIRGRPPRLPRPRPRPKVFPRP | -0.00639
89 | RRIRGRPPRLPRPRPRPKVLPRP | 0.177
90 | RRIRGRPPRLPRPRPRPKYVPRP | 0.0402
91 | RRIRGRPPRLPRPRPRPLAFPRP | 0.487
92 | RRIRGRPPRLPRPRPRPLCCPRP | 0.829
93 | RRIRGRPPRLPRPRPRPLCGPRP | 0.78
94 | RRIRGRPPRLPRPRPRPLCLPRP | 0.437
95 | RRIRGRPPRLPRPRPRPLCNPRP | 0.388
96 | RRIRGRPPRLPRPRPRPLDPPRP | 0.9
97 | RRIRGRPPRLPRPRPRPLDSPRP | 0.217
98 | RRIRGRPPRLPRPRPRPLECPRP | 0.447
99 | RRIRGRPPRLPRPRPRPLEIPRP | 0.428
100 | RRIRGRPPRLPRPRPRPLEVPRP | 0.252

Row | Sequence | shrunken log2 fold change
101 | RRIRGRPPRLPRPRPRPLFAPRP | 1.36
102 | RRIRGRPPRLPRPRPRPLFVPRP | 0.203
103 | RRIRGRPPRLPRPRPRPLGFPRP | 0.755
104 | RRIRGRPPRLPRPRPRPLGLPRP | 0.841
105 | RRIRGRPPRLPRPRPRPLGRPRP | 0.599
106 | RRIRGRPPRLPRPRPRPLHFPRP | 0.339
107 | RRIRGRPPRLPRPRPRPLIEPRP | 0.801
108 | RRIRGRPPRLPRPRPRPLKCPRP | 0.303
109 | RRIRGRPPRLPRPRPRPLKSPRP | 0.426
110 | RRIRGRPPRLPRPRPRPLLLPRP | 0.607
111 | RRIRGRPPRLPRPRPRPLLPPRP | 0.895
112 | RRIRGRPPRLPRPRPRPLNNPRP | -0.109
113 | RRIRGRPPRLPRPRPRPLNTPRP | 0.0396
114 | RRIRGRPPRLPRPRPRPLNWPRP | 0.0909
115 | RRIRGRPPRLPRPRPRPLRIPRP | 0.175
116 | RRIRGRPPRLPRPRPRPLSYPRP | 0.00315
117 | RRIRGRPPRLPRPRPRPLTIPRP | -0.155
118 | RRIRGRPPRLPRPRPRPLTVPRP | 0.48
119 | RRIRGRPPRLPRPRPRPLTWPRP | 0.462
120 | RRIRGRPPRLPRPRPRPLVIPRP | 0.187
121 | RRIRGRPPRLPRPRPRPLVYPRP | 0.0199
122 | RRIRGRPPRLPRPRPRPLWMPRP | 0.343
123 | RRIRGRPPRLPRPRPRPLWTPRP | 0.472
124 | RRIRGRPPRLPRPRPRPLYMPRP | 0.185
125 | RRIRGRPPRLPRPRPRPLYQPRP | 0.0508

Row | Sequence | shrunken log2 fold change
126 | RRIRGRPPRLPRPRPRPMDEPRP | 0.237
127 | RRIRGRPPRLPRPRPRPMDMPRP | -0.02
128 | RRIRGRPPRLPRPRPRPMEDPRP | -0.0262
129 | RRIRGRPPRLPRPRPRPMEIPRP | -0.0753
130 | RRIRGRPPRLPRPRPRPMFEPRP | 0.688
131 | RRIRGRPPRLPRPRPRPMGCPRP | 0.0963
132 | RRIRGRPPRLPRPRPRPMGDPRP | 0.783
133 | RRIRGRPPRLPRPRPRPMKVPRP | -0.0224
134 | RRIRGRPPRLPRPRPRPMLLPRP | 0.548
135 | RRIRGRPPRLPRPRPRPMLSPRP | 0.393
136 | RRIRGRPPRLPRPRPRPMMKPRP | 0.591
137 | RRIRGRPPRLPRPRPRPMMPPRP | 0.119
138 | RRIRGRPPRLPRPRPRPMNKPRP | 1.69
139 | RRIRGRPPRLPRPRPRPMNNPRP | 0.18
140 | RRIRGRPPRLPRPRPRPMPAPRP | 1.29
141 | RRIRGRPPRLPRPRPRPMPIPRP | 0.0958
142 | RRIRGRPPRLPRPRPRPMQMPRP | 1.5
143 | RRIRGRPPRLPRPRPRPMQNPRP | 0.873
144 | RRIRGRPPRLPRPRPRPMQVPRP | 0.162
145 | RRIRGRPPRLPRPRPRPMQWPRP | -0.0537
146 | RRIRGRPPRLPRPRPRPMRMPRP | 1.4
147 | RRIRGRPPRLPRPRPRPMSEPRP | 0.286
148 | RRIRGRPPRLPRPRPRPMTNPRP | 0.835
149 | RRIRGRPPRLPRPRPRPMVKPRP | 0.00813
150 | RRIRGRPPRLPRPRPRPMWHPRP | 0.441
